Test [1] deals with T1, PTPRD extracellular domain (wild type) (human, UniProt P23468 21-1265).
T1 construct: extracellular domain; Ectodomain-Fc in SPR; also called wt PTPRD; PTPRD ectodomain fused to an Fc tag
T1 sequence (looked up): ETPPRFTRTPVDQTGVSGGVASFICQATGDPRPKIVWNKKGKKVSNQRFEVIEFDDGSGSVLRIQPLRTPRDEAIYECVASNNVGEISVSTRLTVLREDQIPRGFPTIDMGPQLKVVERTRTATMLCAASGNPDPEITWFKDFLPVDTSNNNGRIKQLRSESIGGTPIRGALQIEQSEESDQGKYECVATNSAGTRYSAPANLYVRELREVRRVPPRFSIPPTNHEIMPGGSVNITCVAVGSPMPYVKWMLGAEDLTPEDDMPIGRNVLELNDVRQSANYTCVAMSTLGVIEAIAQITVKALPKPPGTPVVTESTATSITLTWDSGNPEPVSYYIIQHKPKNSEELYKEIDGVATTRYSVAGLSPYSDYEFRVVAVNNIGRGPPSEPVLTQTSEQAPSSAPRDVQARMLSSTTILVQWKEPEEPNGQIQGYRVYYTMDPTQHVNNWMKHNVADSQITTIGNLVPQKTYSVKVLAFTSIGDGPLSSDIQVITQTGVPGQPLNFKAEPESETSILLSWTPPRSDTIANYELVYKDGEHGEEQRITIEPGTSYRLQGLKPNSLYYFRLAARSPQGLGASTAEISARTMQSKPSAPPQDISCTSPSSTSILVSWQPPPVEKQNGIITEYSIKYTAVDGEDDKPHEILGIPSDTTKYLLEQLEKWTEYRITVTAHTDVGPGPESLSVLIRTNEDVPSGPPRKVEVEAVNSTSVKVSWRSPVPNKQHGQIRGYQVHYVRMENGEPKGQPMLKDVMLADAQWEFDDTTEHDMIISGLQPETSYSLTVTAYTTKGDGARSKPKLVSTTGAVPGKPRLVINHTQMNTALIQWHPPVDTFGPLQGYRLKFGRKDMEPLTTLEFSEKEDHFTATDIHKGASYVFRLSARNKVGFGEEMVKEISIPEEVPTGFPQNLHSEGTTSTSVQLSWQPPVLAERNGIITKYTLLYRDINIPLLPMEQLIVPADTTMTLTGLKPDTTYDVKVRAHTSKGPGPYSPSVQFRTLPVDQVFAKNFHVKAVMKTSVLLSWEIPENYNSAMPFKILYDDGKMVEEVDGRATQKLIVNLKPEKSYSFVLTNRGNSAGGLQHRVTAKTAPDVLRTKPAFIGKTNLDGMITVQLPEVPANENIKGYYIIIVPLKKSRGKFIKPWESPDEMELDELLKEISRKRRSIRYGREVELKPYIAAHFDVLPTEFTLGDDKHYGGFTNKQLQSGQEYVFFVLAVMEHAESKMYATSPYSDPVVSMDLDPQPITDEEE
The experiment in a line: SPR, ILRAPL1 (IL1RAPL1) ECD-Fc immobilized, PTPRD ectodomain-Fc as analyte. As for the experimental part: (§1) The indicated protein (expressed as an ECD-Fc fusion protein) was immobilized on a sensor chip and PTPRD (expressed as an ectodomain fused to an Fc tag) was injected at the indicated concentrations.
In general terms: Surface plasmon resonance follows binding to a sensor surface in real time, without labels.

The target of test [2] is T1, PTPRD extracellular domain (wild type). Briefly: SPR, SLITRK4 ECD-Fc immobilized, PTPRD ectodomain-Fc as analyte. As for the experimental part: as §1
The target is the same in test [3]. The experiment in a line: SPR, LRFN4 ECD-Fc immobilized, PTPRD ectodomain-Fc as analyte. As to the method: as §1
In test [4] the target is T2, PTPRD G203E K204E variant extracellular domain (human, UniProt P23468 21-1265).
T2 construct: extracellular domain; also called G203E/K204E double mutant; IG2 mutant
T2 sequence (looked up): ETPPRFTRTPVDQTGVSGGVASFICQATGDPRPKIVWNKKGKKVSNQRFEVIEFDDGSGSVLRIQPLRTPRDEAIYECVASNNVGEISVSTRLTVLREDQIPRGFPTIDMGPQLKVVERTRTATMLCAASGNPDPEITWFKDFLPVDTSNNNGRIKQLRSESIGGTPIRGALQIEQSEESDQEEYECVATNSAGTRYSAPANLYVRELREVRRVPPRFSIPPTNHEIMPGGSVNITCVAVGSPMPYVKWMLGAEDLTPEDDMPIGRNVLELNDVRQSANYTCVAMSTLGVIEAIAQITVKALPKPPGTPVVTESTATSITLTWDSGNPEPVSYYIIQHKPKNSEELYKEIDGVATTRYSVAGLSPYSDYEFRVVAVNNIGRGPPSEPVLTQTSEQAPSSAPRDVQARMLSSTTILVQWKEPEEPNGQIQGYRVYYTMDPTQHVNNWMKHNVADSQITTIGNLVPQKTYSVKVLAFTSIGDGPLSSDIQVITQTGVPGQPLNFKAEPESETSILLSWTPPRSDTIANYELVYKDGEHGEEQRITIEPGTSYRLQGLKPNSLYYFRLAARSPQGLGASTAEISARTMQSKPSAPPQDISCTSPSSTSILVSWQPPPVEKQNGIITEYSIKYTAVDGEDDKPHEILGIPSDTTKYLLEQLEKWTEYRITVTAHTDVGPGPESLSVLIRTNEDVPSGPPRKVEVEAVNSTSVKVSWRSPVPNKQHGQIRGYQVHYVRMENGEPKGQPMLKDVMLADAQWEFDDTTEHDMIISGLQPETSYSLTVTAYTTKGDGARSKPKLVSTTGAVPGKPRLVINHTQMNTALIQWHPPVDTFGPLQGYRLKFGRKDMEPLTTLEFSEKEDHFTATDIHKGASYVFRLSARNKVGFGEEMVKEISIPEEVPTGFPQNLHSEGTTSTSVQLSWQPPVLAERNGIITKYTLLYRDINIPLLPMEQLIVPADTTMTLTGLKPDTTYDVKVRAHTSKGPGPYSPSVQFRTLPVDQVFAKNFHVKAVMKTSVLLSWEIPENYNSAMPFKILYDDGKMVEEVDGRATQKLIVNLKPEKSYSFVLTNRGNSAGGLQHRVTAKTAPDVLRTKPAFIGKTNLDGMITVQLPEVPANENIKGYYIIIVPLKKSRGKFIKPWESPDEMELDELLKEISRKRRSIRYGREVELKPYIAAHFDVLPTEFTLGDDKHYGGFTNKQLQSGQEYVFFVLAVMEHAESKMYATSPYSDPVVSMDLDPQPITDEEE
Briefly: extracellular interaction screen: pentameric PTPRD variant ECD on ECD-Fc prey (FIG. 5L).

Test [5] has as its target T1, PTPRD extracellular domain (wild type). The experiment in a line: SPR, SLITRK1 ECD-Fc immobilized, PTPRD ectodomain-Fc as analyte. As to the method:
as §1

Test [6] shares this target. The experiment in a line: SPR, LRFN1 ECD-Fc immobilized, PTPRD ectodomain-Fc as analyte. As for the experimental part: as §1

B1: IL1RAPL1 extracellular domain (receptor, human, UniProt Q9NZN1 19-357, looked up)
chain: LKVVTKRGSADGCTDWSIDIKKYQVLVGEPVRIKCALFYGYIRTNYSLAQSAGLSLMWYKSSGPGDFEEPIAFDGSRMSKEEDSIWFRPTLLQDSGLYACVIRNSTYCMKVSISLTVGENDTGLCYNSKMKYFEKAELSKSKEISCRDIEDFLLPTREPEILWYKECRTKTWRPSIVFKRDTLLIREVREDDIGNYTCELKYGGFVVRRTTELTVTAPLTDKPPKLLYPMESKLTIQETQLGDSANLTCRAFFGYSGDVSPLIYWMKGEKFIEDLDENRVWESDIRILKEHLGEQEVSISLIVDSVEEGDLGNYSCYVENGNGRRHASVLLHKRELMYT
notes: extracellular domain; ECD-Fc; also called ILRAPL1
As for B1, the binding result in test [1] is “binds”.

B2: SLITRK4 extracellular domain (receptor, human, UniProt Q8IW52 19-618, looked up)
chain: DSDISVEICNVCSCVSVENVLYVNCEKVSVYRPNQLKPPWSNFYHLNFQNNFLNILYPNTFLNFSHAVSLHLGNNKLQNIEGGAFLGLSALKQLHLNNNELKILRADTFLGIENLEYLQADYNLIKYIERGAFNKLHKLKVLILNDNLISFLPDNIFRFASLTHLDIRGNRIQKLPYIGVLEHIGRVVELQLEDNPWNCSCDLLPLKAWLENMPYNIYIGEAICETPSDLYGRLLKETNKQELCPMGTGSDFDVRILPPSQLENGYTTPNGHTTQTSLHRLVTKPPKTTNPSKISGIVAGKALSNRNLSQIVSYQTRVPPLTPCPAPCFCKTHPSDLGLSVNCQEKNIQSMSELIPKPLNAKKLHVNGNSIKDVDVSDFTDFEGLDLLHLGSNQITVIKGDVFHNLTNLRRLYLNGNQIERLYPEIFSGLHNLQYLYLEYNLIKEISAGTFDSMPNLQLLYLNNNLLKSLPVYIFSGAPLARLNLRNNKFMYLPVSGVLDQLQSLTQIDLEGNPWDCTCDLVALKLWVEKLSDGIVVKELKCETPVQFANIELKSLKNEILCPKLLNKPSAPFTSPAPAITFTTPLGPIRSPPGGPVPLS
notes: extracellular domain; ECD-Fc
In the case of B2, the binding result in test [2] is given as “binds”.

B3: LRFN4 extracellular domain (receptor, human, UniProt Q6PJG9 17-518, looked up)
chain: CPLPCVCQNLSESLSTLCAHRGLLFVPPNVDRRTVELRLADNFIQALGPPDFRNMTGLVDLTLSRNAITRIGARAFGDLESLRSLHLDGNRLVELGTGSLRGPVNLQHLILSGNQLGRIAPGAFDDFLESLEDLDLSYNNLRQVPWAGIGAMPALHTLNLDHNLIDALPPGAFAQLGQLSRLDLTSNRLATLAPDPLFSRGRDAEASPAPLVLSFSGNPLHCNCELLWLRRLARPDDLETCASPPGLAGRYFWAVPEGEFSCEPPLIARHTQRLWVLEGQRATLRCRALGDPAPTMHWVGPDDRLVGNSSRARAFPNGTLEIGVTGAGDAGGYTCIATNPAGEATARVELRVLALPHGGNSSAEGGRPGPSDIAASARTAAEGEGTLESEPAVQVTEVTATSGLVSWGPGRPADPVWMFQIQYNSSEDETLIYRIVPASSHHFLLKHLVPGADYDLCLLALSPAAGPSDLTATRLLGCAHFSTLPASPLCHALQAHVLGGTL
notes: extracellular domain; ECD-Fc; also called LFRN4
Turning to B3, the binding result in test [3] is given as “binds”; in test [4], “no binding”.

B4: SLITRK1 extracellular domain (receptor, human, UniProt Q96PX8 18-622, looked up)
chain: NVTGDVCKEKICSCNEIEGDLHVDCEKKGFTSLQRFTAPTSQFYHLFLHGNSLTRLFPNEFANFYNAVSLHMENNGLHEIVPGAFLGLQLVKRLHINNNKIKSFRKQTFLGLDDLEYLQADFNLLRDIDPGAFQDLNKLEVLILNDNLISTLPANVFQYVPITHLDLRGNRLKTLPYEEVLEQIPGIAEILLEDNPWDCTCDLLSLKEWLENIPKNALIGRVVCEAPTRLQGKDLNETTEQDLCPLKNRVDSSLPAPPAQEETFAPGPLPTPFKTNGQEDHATPGSAPNGGTKIPGNWQIKIRPTAAIATGSSRNKPLANSLPCPGGCSCDHIPGSGLKMNCNNRNVSSLADLKPKLSNVQELFLRDNKIHSIRKSHFVDYKNLILLDLGNNNIATVENNTFKNLLDLRWLYMDSNYLDTLSREKFAGLQNLEYLNVEYNAIQLILPGTFNAMPKLRILILNNNLLRSLPVDVFAGVSLSKLSLHNNYFMYLPVAGVLDQLTSIIQIDLHGNPWECSCTIVPFKQWAERLGSEVLMSDLKCETPVNFFRKDFMLLSNDEICPQLYARISPTLTSHSKNSTGLAETGTHSNSYLDTSRVSISVLVP
notes: extracellular domain; ECD-Fc
On to B4, for which, in test [5], the binding result is given as “binds”.

B5: LRFN1 extracellular domain (receptor, human, UniProt Q9P244 32-536, looked up)
chain: QPCPGRCICQNVAPTLTMLCAKTGLLFVPPAIDRRVVELRLTDNFIAAVRRRDFANMTSLVHLTLSRNTIGQVAAGAFADLRALRALHLDSNRLAEVRGDQLRGLGNLRHLILGNNQIRRVESAAFDAFLSTVEDLDLSYNNLEALPWEAVGQMVNLNTLTLDHNLIDHIAEGTFVQLHKLVRLDMTSNRLHKLPPDGLFLRSQGTGPKPPTPLTVSFGGNPLHCNCELLWLRRLTREDDLETCATPEHLTDRYFWSIPEEEFLCEPPLITRQAGGRALVVEGQAVSLRCRAVGDPEPVVHWVAPDGRLLGNSSRTRVRGDGTLDVTITTLRDSGTFTCIASNAAGEATAPVEVCVVPLPLMAPPPAAPPPLTEPGSSDIATPGRPGANDSAAERRLVAAELTSNSVLIRWPAQRPVPGIRMYQVQYNSSVDDSLVYRMIPSTSQTFLVNDLAAGRAYDLCVLAVYDDGATALPATRVVGCVQFTTAGDPAPCRPLRAHFLGGTM
notes: extracellular domain; ECD-Fc; also called LFRN1
On to B5, for which, in test [6], the binding result is “binds”.
